B1: CDK5RAP2(44-93) (domain or fragment, human)
chain: SNIGSGGTPSTGSSLPNVSEETVSPTRARNMKDFENQITELKKENFNLKLRIYFLEERMQQEFH

Tests used:
MZT2:GST-GCP2-NHD = MZT2:GST-GCP2-NHD (human, UniProt Q6P582 1-158; Q9BSJ2 1-110); experiment: pull-down
cryo-EM structure = biological target: the molecule itself; experiment: cryo-EM structure

MZT2:GST-GCP2-NHD, sequence (Q6P582 whole entry, chain 1 of 2): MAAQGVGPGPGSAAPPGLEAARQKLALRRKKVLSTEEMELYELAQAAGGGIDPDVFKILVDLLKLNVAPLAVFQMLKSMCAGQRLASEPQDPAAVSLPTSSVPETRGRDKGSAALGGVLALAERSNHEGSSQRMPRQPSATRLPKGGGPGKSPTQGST
MZT2:GST-GCP2-NHD, sequence (Q9BSJ2 1-110, chain 2 of 2): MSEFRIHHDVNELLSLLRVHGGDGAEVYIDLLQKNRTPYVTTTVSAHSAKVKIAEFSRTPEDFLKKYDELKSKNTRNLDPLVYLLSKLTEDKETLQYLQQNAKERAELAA

Row | Binder | Kd (MZT2:GST-GCP2-NHD) [µM] | binding result (cryo-EM structure)
1 | B1 | ≥ 10 | –
2 | TVSPTRARNMKDFENQITELKKENFNLKLRIYFLEERMQQEFHGPTEHIY (domain or fragment, human, UniProt Q96SN8 51-100, looked up) [CDK5RAP2(51-100)] | – | binds

Source: publication doi:10.1101/2023.12.14.571518 (bioRxiv, 2023)
